Laboratory results reported in patent US20220267751A1.

Target: recombinant streptokinase from Streptococcus pyrogenes (so in the source) (Streptococcus pyrogenes (so in the source))
Assay: SPR (Biacore T200), SK on Ni2+-NTA chip, 1:1 Langmuir model

Sequence of native plasminogen (purchased from Merck, purified from human plasma) (P00747 20-810 limits assumed): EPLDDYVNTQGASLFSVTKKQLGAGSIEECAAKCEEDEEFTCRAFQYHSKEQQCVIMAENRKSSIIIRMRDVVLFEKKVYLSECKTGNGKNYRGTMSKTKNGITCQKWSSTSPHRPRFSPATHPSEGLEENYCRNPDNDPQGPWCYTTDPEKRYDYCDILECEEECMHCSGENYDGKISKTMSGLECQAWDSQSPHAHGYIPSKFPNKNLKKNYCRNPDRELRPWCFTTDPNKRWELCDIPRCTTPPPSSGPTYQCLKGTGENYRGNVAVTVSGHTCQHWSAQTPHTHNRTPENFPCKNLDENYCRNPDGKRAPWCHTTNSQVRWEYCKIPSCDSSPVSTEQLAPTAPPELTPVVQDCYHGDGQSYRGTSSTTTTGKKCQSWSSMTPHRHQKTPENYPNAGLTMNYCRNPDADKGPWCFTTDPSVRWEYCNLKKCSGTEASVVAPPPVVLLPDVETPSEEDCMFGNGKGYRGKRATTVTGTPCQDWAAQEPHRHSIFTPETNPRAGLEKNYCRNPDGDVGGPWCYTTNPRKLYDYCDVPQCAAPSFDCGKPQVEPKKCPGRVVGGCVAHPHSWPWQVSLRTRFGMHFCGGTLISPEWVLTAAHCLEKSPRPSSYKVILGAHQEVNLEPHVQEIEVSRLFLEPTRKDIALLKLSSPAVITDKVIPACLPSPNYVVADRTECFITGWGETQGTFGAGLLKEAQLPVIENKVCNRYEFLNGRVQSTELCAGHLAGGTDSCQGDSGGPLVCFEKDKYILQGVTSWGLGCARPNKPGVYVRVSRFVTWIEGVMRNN
Sequence of recombinant plasminogen (P00747 20-810 limits assumed): as above
Sequence of native plasmin (purchased from Haematologic Technologies) (P00747 97-580 limits assumed): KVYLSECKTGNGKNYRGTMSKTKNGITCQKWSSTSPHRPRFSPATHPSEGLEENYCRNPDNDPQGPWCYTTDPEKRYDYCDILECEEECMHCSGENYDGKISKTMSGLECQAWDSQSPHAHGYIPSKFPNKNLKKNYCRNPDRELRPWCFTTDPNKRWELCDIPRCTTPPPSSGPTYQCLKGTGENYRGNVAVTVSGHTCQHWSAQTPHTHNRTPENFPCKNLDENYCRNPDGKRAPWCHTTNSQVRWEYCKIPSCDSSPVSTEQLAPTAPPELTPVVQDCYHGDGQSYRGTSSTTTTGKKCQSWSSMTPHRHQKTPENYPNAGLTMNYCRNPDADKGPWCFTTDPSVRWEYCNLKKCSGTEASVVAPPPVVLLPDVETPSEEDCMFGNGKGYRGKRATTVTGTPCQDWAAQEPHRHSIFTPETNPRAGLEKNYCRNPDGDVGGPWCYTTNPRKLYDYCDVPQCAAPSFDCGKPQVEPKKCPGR
Sequence of native plasmin (purchased from Haematologic Technologies) (P00747 581-810 limits assumed): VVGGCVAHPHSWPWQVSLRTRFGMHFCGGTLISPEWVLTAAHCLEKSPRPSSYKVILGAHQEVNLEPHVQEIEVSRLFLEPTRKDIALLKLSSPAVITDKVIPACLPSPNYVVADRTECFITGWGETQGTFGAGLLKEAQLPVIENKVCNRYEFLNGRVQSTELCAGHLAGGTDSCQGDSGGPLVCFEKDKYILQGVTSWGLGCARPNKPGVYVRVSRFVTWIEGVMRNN

Compared with “native plasmin (purchased from Haematologic Technologies) (from UniProt P00747 97-580; P00747 581-810) (enzyme)”, “native plasminogen (purchased from Merck, purified from human plasma) (from UniProt P00747 20-810)” is 4.2-fold higher in Kd: 0.33 nM for the first, 1.4 nM for the second. The first binds more tightly here.

“recombinant plasminogen (from UniProt P00747 20-810)” showed a Kd of 1.4 nM.

Going from “native plasmin (purchased from Haematologic Technologies) (from UniProt P00747 97-580; P00747 581-810) (enzyme)” to “native plasminogen (purchased from Merck, purified from human plasma) (from UniProt P00747 20-810)”, the koff falls from 0.0023 s⁻¹ to 0.00032 s⁻¹ (7.2-fold).

In the case of “recombinant plasminogen (from UniProt P00747 20-810)”, the koff is reported as 0.00036 s⁻¹.

Going from “native plasmin (purchased from Haematologic Technologies) (from UniProt P00747 97-580; P00747 581-810) (enzyme)” to “native plasminogen (purchased from Merck, purified from human plasma) (from UniProt P00747 20-810)”, the kon falls from 7.1e+06 M⁻¹ s⁻¹ to 230000 M⁻¹ s⁻¹ (31-fold).

For “recombinant plasminogen (from UniProt P00747 20-810)”, the kon was 270000 M⁻¹ s⁻¹.
